Measured values reported in the supplement of paper PMC7877785.
± gives the uncertainty stated by the source.

Experiment: self-splicing fitness, log relative to wild type (ln ratio); higher = more splicing; Tetrahymena group I intron in knt gene, E. coli kanamycin selection, DiMSum; sequences stand for … in CUCUCU…GGAGGGAAAAGUUAUCAGGCAUGCACCUGGUAGCUAGUCUUUAAACCAAUAGAUUGCAUCGGUUUAAAAGGCAAGACCGUCAAAUUGCGGGAAAGGGGUCAACAGCCGUUCAGUACCAAGUCUCAGGGGAAACUUUGAGAUGGCCUUGCAAAGGGUAUGGUAAUAAGCUGACGGACAUGGUCCUAACCACGCAGCCAAGUCCUAAGUCAACAGAUCUUCUGUUGAUAUGGAUGCAGUUCACAGACUAAAUGUCGGUCGGGGAAGAUGUAUUCUUCUCAUAAGAUAUAGUCGGACCUCUCCUUAAUGGGAGCUAGCGGAUGAAGUGAUGCAACACUGGAGCCGCUGGGAACUAAUUUGUAUGCGAAAGUAUAUUGAUUAGUUUUGGAGUACUCGUGGUCG
In short: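 Six replicate transformations of E. coli BL21(DE3) with a pET-22b(+) library were grown overnight at 37°C or 30°C. The library randomised all eight P1ex-region intron nucleotides, the intron lying in the knt kanamycin-resistance gene, and plates were LB agar with or without 25 μg/mL kanamycin plus 100 μg/mL carbenicillin, 50 μM IPTG and 0.2% rhamnose. Pooled colonies were amplicon-sequenced on an Illumina HiSeq 2500, and fitness is the DiMSum error-weighted combination of wild-type-normalised replicate fold changes, kanamycin versus none.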

| Sequence | self-splicing fitness (ln) (30 °C) | self-splicing fitness (ln) (37 °C) |
| --- | --- | --- |
| UCACAGCAAUAUUACGCUGG | -3.9 ± 0.26 | -2.94 ± 0.22 |
| CAUCAGCAAUAUUACGUAAC | -2.81 ± 0.15 | -2.01 ± 0.24 |
| AAUGAGCAAUAUUACGGGGU | -2.97 ± 0.18 | -2.29 ± 0.21 |
| UAGAAGCAAUAUUACGAAGU | -3.7 ± 0.4 | -1.17 ± 0.22 |
| UACGAGCAAUAUUACGUCCU | -2.87 ± 0.22 | -1.38 ± 0.19 |
| UGCCAGCAAUAUUACGCAUU | -3.81 ± 0.46 | -1.24 ± 0.21 |
| UGGCAGCAAUAUUACGAUUG | -1.07 ± 0.074 | 0.135 ± 0.093 |
| GUGUAGCAAUAUUACGGAGU | -2.96 ± 0.17 | -2.61 ± 0.29 |
| CCGGAGCAAUAUUACGGCGU | -4.4 ± 0.46 | -2.84 ± 0.26 |
| CCCAAGCAAUAUUACGAGUG | -2.61 ± 0.16 | -2.94 ± 0.17 |
| CUAUAGCAAUAUUACGUACA | -2.36 ± 0.17 | -2.05 ± 0.2 |
| CAUCAGCAAUAUUACGCCAG | -0.613 ± 0.068 | -0.553 ± 0.1 |
| AGGGAGCAAUAUUACGAUUC | -3.76 ± 0.35 | -2.41 ± 0.29 |
| CCGGAGCAAUAUUACGCCGG | – | -3.09 ± 0.28 |
| CUGGAGCAAUAUUACGUGGA | -1.96 ± 0.23 | -2.63 ± 0.48 |
| GGAAAGCAAUAUUACGUUAA | -3.35 ± 0.16 | -1.84 ± 0.15 |
| CUUCAGCAAUAUUACGCCUC | – | -3.49 ± 0.32 |
| GACGAGCAAUAUUACGCCAG | – | -2.63 ± 0.28 |
| CAAAAGCAAUAUUACGUAAG | -0.419 ± 0.047 | 0.0644 ± 0.059 |

| Sequence | self-splicing fitness (ln) (30 °C) | self-splicing fitness (ln) (37 °C) |
| --- | --- | --- |
| UUUUAGCAAUAUUACGCGCA | -0.13 ± 0.11 | -0.0853 ± 0.12 |
| UCAAAGCAAUAUUACGGACA | -0.451 ± 0.13 | 0.0835 ± 0.14 |
| AAAGAGCAAUAUUACGCCUU | -3.49 ± 0.29 | -1.81 ± 0.23 |
| CCAAAGCAAUAUUACGCGAC | -4.37 ± 0.27 | -2.87 ± 0.21 |
| AGCGAGCAAUAUUACGUAAA | -2.53 ± 0.18 | -2.03 ± 0.31 |
| UCCGAGCAAUAUUACGUGCA | -1.45 ± 0.15 | -1.47 ± 0.12 |
| UUAAAGCAAUAUUACGGACG | 0.179 ± 0.079 | 0.835 ± 0.14 |
| CUCCAGCAAUAUUACGUUAG | -2.15 ± 0.094 | -1.51 ± 0.12 |
| GGCUAGCAAUAUUACGGGAG | -2.17 ± 0.14 | -1.84 ± 0.19 |
| UACUAGCAAUAUUACGCAUA | -1.99 ± 0.14 | -0.0544 ± 0.09 |
| GAAGAGCAAUAUUACGUAGG | -3.14 ± 0.33 | -1.99 ± 0.19 |
| CACAAGCAAUAUUACGCGGA | -3.17 ± 0.13 | -1.08 ± 0.084 |
| AAGUAGCAAUAUUACGCACC | -1.16 ± 0.12 | -0.367 ± 0.2 |
| AACUAGCAAUAUUACGUCGA | -0.769 ± 0.087 | -0.975 ± 0.09 |
| CGAUAGCAAUAUUACGCCUA | -2.11 ± 0.22 | -1.38 ± 0.18 |
| GUACAGCAAUAUUACGGACC | -2.76 ± 0.13 | -2.1 ± 0.2 |
| UAUAAGCAAUAUUACGUAUA | -2.77 ± 0.21 | -0.986 ± 0.17 |
| ACUCAGCAAUAUUACGUUGU | -3.45 ± 0.11 | -2.23 ± 0.13 |
| AAAGAGCAAUAUUACGUGCU | -3.28 ± 0.22 | -2.82 ± 0.25 |
